# Assays:
# bovine serum albumin = bovine serum albumin (UniProt P02769)
# [1] = molecular target: E. coli malic enzyme-kemptide fusion protein (UniProt P26616)
# E. coli malic enzyme-kemptide fusion protein, sequence (P26616 whole entry, looked up, the tested form may be a part): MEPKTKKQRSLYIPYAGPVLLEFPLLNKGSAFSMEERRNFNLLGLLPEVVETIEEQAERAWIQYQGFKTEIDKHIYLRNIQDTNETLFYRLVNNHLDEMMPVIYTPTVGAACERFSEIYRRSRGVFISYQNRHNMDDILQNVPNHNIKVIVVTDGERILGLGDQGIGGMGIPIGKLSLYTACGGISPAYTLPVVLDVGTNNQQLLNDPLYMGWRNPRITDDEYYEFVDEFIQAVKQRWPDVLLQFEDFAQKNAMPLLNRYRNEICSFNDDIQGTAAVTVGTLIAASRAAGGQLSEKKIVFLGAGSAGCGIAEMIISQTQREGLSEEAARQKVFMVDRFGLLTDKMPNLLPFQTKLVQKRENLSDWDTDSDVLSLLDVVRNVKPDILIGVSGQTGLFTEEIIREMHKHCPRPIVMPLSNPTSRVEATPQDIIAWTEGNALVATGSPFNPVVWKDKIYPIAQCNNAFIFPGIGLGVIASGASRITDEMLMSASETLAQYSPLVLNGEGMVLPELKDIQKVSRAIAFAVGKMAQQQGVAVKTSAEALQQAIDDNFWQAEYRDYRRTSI
# bovine serum albumin, sequence (P02769 25-607): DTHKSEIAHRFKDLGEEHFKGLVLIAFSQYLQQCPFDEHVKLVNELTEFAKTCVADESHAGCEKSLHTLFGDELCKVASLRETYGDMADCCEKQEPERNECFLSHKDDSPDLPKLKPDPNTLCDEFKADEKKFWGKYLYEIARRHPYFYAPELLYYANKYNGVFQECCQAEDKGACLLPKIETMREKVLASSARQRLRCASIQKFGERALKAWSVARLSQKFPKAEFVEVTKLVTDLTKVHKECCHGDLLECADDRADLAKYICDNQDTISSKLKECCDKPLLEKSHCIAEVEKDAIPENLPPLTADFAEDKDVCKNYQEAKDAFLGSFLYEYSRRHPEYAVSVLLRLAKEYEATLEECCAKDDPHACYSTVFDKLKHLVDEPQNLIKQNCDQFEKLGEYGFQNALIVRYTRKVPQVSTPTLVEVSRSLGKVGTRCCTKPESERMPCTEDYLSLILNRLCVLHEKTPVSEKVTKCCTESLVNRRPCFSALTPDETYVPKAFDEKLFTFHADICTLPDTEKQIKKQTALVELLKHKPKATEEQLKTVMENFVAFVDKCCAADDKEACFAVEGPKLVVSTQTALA
substance,measurement,setting,value
cAMP-dependent protein kinase,"phosphorylation with [gamma-32P]ATP on the biochip, X-ray film",bovine serum albumin,no signal was observed on No. 1 BSA spot selected as a negative control
same,phosphorylation with [gamma-32P]ATP on the biochip after different blocking solutions or none,[1],clear spots were observed not only when 1% BSA was treated but also when 1% glycine and 10% glycerol were treated
same,"phosphorylation with [gamma-32P]ATP on the biochip, X-ray film",[1],spot signals were clearly confirmed on the malic enzyme-kemptide fusion protein or kemptide spot
same,phosphorylation with [gamma-32P]ATP on the biochip after different blocking solutions or none,kemptide,clear spots were observed not only when 1% BSA was treated but also when 1% glycine and 10% glycerol were treated
same,"phosphorylation with [gamma-32P]ATP on the biochip, X-ray film",kemptide,spot signals were clearly confirmed on the malic enzyme-kemptide fusion protein or kemptide spot
same,"phosphorylation with [gamma-32P]ATP on the biochip, X-ray film against image plate (IP)",kemptide,signals were clearly detected on IP film even with short sensitization time

# Source: patent US20100029507
